Test results: PMC10397247
One block for each binder: values may come before it.

How the values were obtained:
GCN4-SR [1] = biological target: T1, GCN4-SR; test: two-hybrid library CCNG1;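 note: natural log of median RNA to DNA barcode read ratio; higher means stronger binding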
T1 chain: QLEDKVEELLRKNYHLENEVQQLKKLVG

GCN4-SR [2] = biological target: T1, GCN4-SR; test: two-hybrid library CCmax;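 note: natural log of median RNA to DNA barcode read ratio; higher means stronger binding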
Core_INNN-es_KEKE = biological target: T2, Core_INNN-es_KEKE; test: two-hybrid library CCmax; conditions: mean of both orientations;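 note: natural log of median RNA to DNA barcode read ratio; higher means stronger binding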
T2 chain: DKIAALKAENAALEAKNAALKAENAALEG

Core_INII-es_KKKK = biological target: T3, Core_INII-es_KKKK; test: two-hybrid library CCmax;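 note: natural log of median RNA to DNA barcode read ratio; higher means stronger binding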
T3 chain: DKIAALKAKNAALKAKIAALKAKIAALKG

4H1040-AA = biological target: T4, 4H1040-AA; test: two-hybrid library CCmax;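 note: natural log of median RNA to DNA barcode read ratio; higher means stronger binding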
T4 chain: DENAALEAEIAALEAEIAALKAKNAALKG

4H1262-AA = biological target: T5, 4H1262-AA; test: two-hybrid library CCmax; conditions: mean of both orientations;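 note: natural log of median RNA to DNA barcode read ratio; higher means stronger binding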
T5 chain: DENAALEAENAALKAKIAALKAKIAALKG

4H133-AA = biological target: T6, 4H133-AA; test: two-hybrid library CCmax; conditions: mean of both orientations
T6 chain: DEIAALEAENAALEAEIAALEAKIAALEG

4H1349-AA = biological target: T7, 4H1349-AA; test: two-hybrid library CCmax; conditions: mean of both orientations
T7 chain: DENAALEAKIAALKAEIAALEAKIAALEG

4H1384-AA = biological target: T8, 4H1384-AA; test: two-hybrid library CCmax; conditions: mean of both orientations
T8 chain: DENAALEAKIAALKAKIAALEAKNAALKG

4H1449-AA = biological target: T9, 4H1449-AA; test: two-hybrid library CCmax; conditions: mean of both orientations
T9 chain: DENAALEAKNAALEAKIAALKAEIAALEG

4H1593-AA = biological target: T10, 4H1593-AA; test: two-hybrid library CCmax; conditions: mean of both orientations
T10 chain: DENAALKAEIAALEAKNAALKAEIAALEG

4H1878-AA = biological target: T11, 4H1878-AA; test: two-hybrid library CCmax; conditions: mean of both orientations
T11 chain: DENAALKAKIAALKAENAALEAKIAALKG

4H235-AA = biological target: T12, 4H235-AA; test: two-hybrid library CCmax; conditions: mean of both orientations
T12 chain: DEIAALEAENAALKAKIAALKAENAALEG

4H249-AA = biological target: T13, 4H249-AA; test: two-hybrid library CCmax; conditions: mean of both orientations
T13 chain: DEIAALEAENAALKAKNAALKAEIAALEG

4H2580-AA = biological target: T14, 4H2580-AA; test: two-hybrid library CCmax; conditions: mean of both orientations
T14 chain: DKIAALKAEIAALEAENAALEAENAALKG

4H2604-AA = biological target: T15, 4H2604-AA; test: two-hybrid library CCmax; conditions: mean of both orientations
T15 chain: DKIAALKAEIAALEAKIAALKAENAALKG

4H2621-AA = biological target: T16, 4H2621-AA; test: two-hybrid library CCmax; conditions: mean of both orientations
T16 chain: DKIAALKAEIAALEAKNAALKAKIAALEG

4H2760-AA = biological target: T17, 4H2760-AA; test: two-hybrid library CCmax; conditions: mean of both orientations
T17 chain: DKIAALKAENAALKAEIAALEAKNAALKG

4H2774-AA = biological target: T18, 4H2774-AA; test: two-hybrid library CCmax; conditions: mean of both orientations
T18 chain: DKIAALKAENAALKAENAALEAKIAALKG

4H2903-AA = biological target: T19, 4H2903-AA; test: two-hybrid library CCmax; conditions: mean of both orientations
T19 chain: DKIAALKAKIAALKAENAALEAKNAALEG

4H2947-AA = biological target: T20, 4H2947-AA; test: two-hybrid library CCmax; conditions: mean of both orientations
T20 chain: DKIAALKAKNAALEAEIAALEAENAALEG

4H2961-AA = biological target: T21, 4H2961-AA; test: two-hybrid library CCmax; conditions: mean of both orientations
T21 chain: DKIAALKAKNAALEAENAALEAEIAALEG

4H3049-AA = biological target: T22, 4H3049-AA; test: two-hybrid library CCmax; conditions: mean of both orientations
T22 chain: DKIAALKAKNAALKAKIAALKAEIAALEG

4H3094-AA = biological target: T23, 4H3094-AA; test: two-hybrid library CCmax; conditions: mean of both orientations
T23 chain: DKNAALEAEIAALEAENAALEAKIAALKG

4H324-AA = biological target: T24, 4H324-AA; test: two-hybrid library CCmax; conditions: mean of both orientations
T24 chain: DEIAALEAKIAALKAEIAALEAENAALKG

4H341-AA = biological target: T25, 4H341-AA; test: two-hybrid library CCmax; conditions: mean of both orientations
T25 chain: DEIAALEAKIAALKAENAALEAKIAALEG

4H3449-AA = biological target: T26, 4H3449-AA; test: two-hybrid library CCmax; conditions: mean of both orientations
T26 chain: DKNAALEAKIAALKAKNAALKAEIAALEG

4H3619-AA = biological target: T27, 4H3619-AA; test: two-hybrid library CCmax; conditions: mean of both orientations
T27 chain: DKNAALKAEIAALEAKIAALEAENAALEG

4H3629-AA = biological target: T28, 4H3629-AA; test: two-hybrid library CCmax; conditions: mean of both orientations
T28 chain: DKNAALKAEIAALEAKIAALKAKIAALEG

4H3777-AA = biological target: T29, 4H3777-AA; test: two-hybrid library CCmax; conditions: mean of both orientations
T29 chain: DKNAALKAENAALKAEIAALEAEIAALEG

4H380-AA = biological target: T30, 4H380-AA; test: two-hybrid library CCmax; conditions: mean of both orientations
T30 chain: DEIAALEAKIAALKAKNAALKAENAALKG

4H3915-AA = biological target: T31, 4H3915-AA; test: two-hybrid library CCmax; conditions: mean of both orientations
T31 chain: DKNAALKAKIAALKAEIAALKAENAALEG

4H3974-AA = biological target: T32, 4H3974-AA; test: two-hybrid library CCmax; conditions: mean of both orientations
T32 chain: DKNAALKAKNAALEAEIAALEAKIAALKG

4H432-AA = biological target: T33, 4H432-AA; test: two-hybrid library CCmax; conditions: mean of both orientations
T33 chain: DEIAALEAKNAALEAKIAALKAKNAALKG

4H446-AA = biological target: T34, 4H446-AA; test: two-hybrid library CCmax; conditions: mean of both orientations
T34 chain: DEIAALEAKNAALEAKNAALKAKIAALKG

4H63-AA = biological target: T35, 4H63-AA; test: two-hybrid library CCmax; conditions: mean of both orientations
T35 chain: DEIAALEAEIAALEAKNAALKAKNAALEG

Binder: DEIAALEAENAALEAEIAALEAEIAALEG [Core_INII-es_EEEE]
- interaction score (Core_INII-es_KKKK): 1.29

Binder: DENAALEAEIAALEAEIAALKAKNAALKG [4H1040-AA]
- interaction score (4H1040-AA): 0.802
- interaction score (4H1262-AA): 1.1
- interaction score (4H133-AA): -1.47
- interaction score (4H1349-AA): 0.263
- interaction score (4H1384-AA): 0.28
- interaction score (4H1449-AA): 0.618
- interaction score (4H1593-AA): -1.27
- interaction score (4H1878-AA): -0.752
- interaction score (4H235-AA): -1.14
- interaction score (4H249-AA): -0.999
- interaction score (4H2580-AA): 1.19
- interaction score (4H2604-AA): 0.338
- interaction score (4H2621-AA): -0.66
- interaction score (4H2760-AA): -1.46
- interaction score (4H2774-AA): -0.661
- interaction score (4H2903-AA): 1.05
- interaction score (4H2947-AA): -1.06
- interaction score (4H2961-AA): -1.24
- interaction score (4H3049-AA): 1.34
- interaction score (4H3094-AA): -1.03
- interaction score (4H324-AA): 1.68
- interaction score (4H341-AA): -0.876
- interaction score (4H3449-AA): -0.935
- interaction score (4H3619-AA): 0.716
- interaction score (4H3629-AA): 1.28
- interaction score (4H3777-AA): -0.948
- interaction score (4H380-AA): 0.307
- interaction score (4H3915-AA): 2.34
- interaction score (4H3974-AA): 0.222
- interaction score (4H432-AA): -1.63
- interaction score (4H446-AA): -1.4
- interaction score (4H63-AA): -1.26

Next, values leading:

- interaction score (GCN4-SR [1]): -2.35
- interaction score (GCN4-SR [2]): -1.35
Binder: QLEDKVEELLRKNYHLENEVQQLKKLVG [GCN4-SR]

- interaction score (Core_INNN-es_KEKE): 2
Binder: DEIAALEAKNAALKAENAALEAKNAALKG [Core_INNN-es_EKEK]
